Literature values in paper PMC7557795.

Key:
[1] = molecular target: IL-6R/gp130 (Homo sapiens) (UniProt P08887)
[2] = molecular target: IL-6R (Homo sapiens) (UniProt P08887)
IL-6R (Homo sapiens), sequence (P08887 20-355): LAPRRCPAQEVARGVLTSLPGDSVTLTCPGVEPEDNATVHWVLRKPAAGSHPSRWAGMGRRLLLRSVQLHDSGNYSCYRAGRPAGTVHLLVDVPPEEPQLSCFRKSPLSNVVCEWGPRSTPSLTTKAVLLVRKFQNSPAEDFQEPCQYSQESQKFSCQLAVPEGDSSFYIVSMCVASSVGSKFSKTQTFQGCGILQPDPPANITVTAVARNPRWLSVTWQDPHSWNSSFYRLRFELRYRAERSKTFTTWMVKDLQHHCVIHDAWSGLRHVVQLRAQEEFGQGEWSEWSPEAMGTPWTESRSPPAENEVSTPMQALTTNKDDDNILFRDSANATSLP

IL-6, sequence (P05231 30-212): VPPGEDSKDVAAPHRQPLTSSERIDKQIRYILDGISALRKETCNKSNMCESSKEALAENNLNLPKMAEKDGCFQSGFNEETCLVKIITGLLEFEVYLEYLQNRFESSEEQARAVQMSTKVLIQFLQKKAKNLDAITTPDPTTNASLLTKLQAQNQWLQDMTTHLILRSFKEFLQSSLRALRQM
IL-6R/gp130 (Homo sapiens), sequence (P08887 20-365, chain 1 of 2): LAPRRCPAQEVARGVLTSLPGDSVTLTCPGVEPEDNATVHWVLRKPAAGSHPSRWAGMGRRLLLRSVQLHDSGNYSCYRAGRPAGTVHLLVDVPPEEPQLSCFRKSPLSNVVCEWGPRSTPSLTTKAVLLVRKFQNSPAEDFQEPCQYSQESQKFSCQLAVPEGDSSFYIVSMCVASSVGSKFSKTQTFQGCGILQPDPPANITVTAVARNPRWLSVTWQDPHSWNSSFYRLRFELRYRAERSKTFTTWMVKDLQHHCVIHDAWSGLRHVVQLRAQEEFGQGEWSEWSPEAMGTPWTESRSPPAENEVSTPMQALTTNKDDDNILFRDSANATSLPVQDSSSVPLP
IL-6R/gp130 (Homo sapiens), sequence (partner, as listed by the source, chain 2 of 2): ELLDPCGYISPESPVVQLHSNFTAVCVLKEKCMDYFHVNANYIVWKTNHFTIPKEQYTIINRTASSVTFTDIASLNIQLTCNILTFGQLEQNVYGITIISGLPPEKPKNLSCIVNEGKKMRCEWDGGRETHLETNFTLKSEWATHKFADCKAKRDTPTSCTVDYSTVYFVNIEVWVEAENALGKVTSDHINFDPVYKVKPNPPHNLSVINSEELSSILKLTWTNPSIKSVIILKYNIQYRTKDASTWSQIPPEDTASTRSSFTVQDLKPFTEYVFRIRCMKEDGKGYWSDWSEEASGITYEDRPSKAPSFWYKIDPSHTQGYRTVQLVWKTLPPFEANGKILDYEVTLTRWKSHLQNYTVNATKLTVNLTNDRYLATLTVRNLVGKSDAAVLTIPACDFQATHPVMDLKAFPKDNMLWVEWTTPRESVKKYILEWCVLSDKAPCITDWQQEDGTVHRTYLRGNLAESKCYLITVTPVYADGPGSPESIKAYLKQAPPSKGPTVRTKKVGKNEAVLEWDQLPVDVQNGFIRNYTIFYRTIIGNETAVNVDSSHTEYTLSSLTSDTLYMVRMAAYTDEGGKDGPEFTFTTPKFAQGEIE

Which results are given for IL-6 (from UniProt P05231)?
Kd [1]: 0.08 nM; Kd [2]: 0.9 nM
